Patent publication US20210315964A1 (University of Pennsylvania, published 2021)

T1: recombinant human peroxiredoxin 6 (hPrdx6) (human, UniProt P30041 1-224, limits assumed)
T1 sequence (looked up): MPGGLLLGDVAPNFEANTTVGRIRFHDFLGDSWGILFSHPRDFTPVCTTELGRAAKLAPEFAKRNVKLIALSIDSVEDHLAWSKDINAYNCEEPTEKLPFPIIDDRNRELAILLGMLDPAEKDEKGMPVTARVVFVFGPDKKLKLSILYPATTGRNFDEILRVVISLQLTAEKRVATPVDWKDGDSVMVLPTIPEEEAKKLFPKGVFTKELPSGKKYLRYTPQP


The binders below were run against T1, recombinant human peroxiredoxin 6 … (assay: cell-based or functional assay).
ELQTELYEIKHQIL [SEQ ID NO: 10 ELQTELYEIKHQIL (14)] was tested, and the “aiPLA2 activity of recombinant hPrdx6 with peptide (hPrdx6 only, no peptide: 93.4)” value was 33.2 nmol/min/mg prot.
In the case of DEELQTELYEIKHQIL [PIP-3 (rat, mouse, 16-mer) DEELQTELYEIKHQIL], the “aiPLA2 activity of recombinant hPrdx6 with peptide (hPrdx6 only, no peptide: 93.4)” value is reported as 32 nmol/min/mg prot.
In the case of DEELQATLHDFRHQIL [PIP-1 (human, 16-mer) DEELQATLHDFRHQIL], the “aiPLA2 activity of recombinant hPrdx6 with peptide (hPrdx6 only, no peptide: 93.4)” value is reported as 45 nmol/min/mg prot.
DEELQTELYEI [SEQ ID NO: 16 … (12)] was tested, and the “aiPLA2 activity of recombinant hPrdx6 with peptide (hPrdx6 only, no peptide: 93.4)” value was 95.7 nmol/min/mg prot.
With DEELQTELYEIK [SEQ ID NO: 15 … (14)] the “aiPLA2 activity of recombinant hPrdx6 with peptide (hPrdx6 only, no peptide: 93.4)” value was 102 nmol/min/mg prot.
In the case of QTELYEIKHQIL [SEQ ID NO: 11 QTELYEIKHQIL (12)], the “aiPLA2 activity of recombinant hPrdx6 with peptide (hPrdx6 only, no peptide: 93.4)” value is reported as 31.5 nmol/min/mg prot.
With IKHQIL [SEQ ID NO: 14 IKHQIL (6)] the “aiPLA2 activity of recombinant hPrdx6 with peptide (hPrdx6 only, no peptide: 93.4)” value was 97.1 nmol/min/mg prot.
For ELYEIKHQIL [SEQ ID NO: 12 ELYEIKHQIL (10)], the “aiPLA2 activity of recombinant hPrdx6 with peptide (hPrdx6 only, no peptide: 93.4)” value was 28.6 nmol/min/mg prot.
With YEIKHQIL [SEQ ID NO: 13 YEIKHQIL (8)] the “aiPLA2 activity of recombinant hPrdx6 with peptide (hPrdx6 only, no peptide: 93.4)” value was 94.4 nmol/min/mg prot.

Target: T1, recombinant human peroxiredoxin 6 …
Assay: cell-based or functional assay
Remark: another data set of the same source
In the case of DEELQTELYEIKHQIL [PIP-3 (rat, mouse, 16-mer) DEELQTELYEIKHQIL], the “aiPLA2 activity of human recombinant protein with peptide (hPrdx6 only: 92.0)” value (from here on “aiPLA2 activity … (hPrdx6 only: 92.0)”) is reported as 32 nmol/min/mg prot.
TLHDFRHQI [SEQ ID NO: 19 … (10)] was tested, and the “aiPLA2 activity … (hPrdx6 only: 92.0)” value was 31.5 nmol/min/mg prot.
In the case of LHDFRHQIL [PIP-2 LHDFRHQIL], the “aiPLA2 activity … (hPrdx6 only: 92.0)” value is reported as 29.9 nmol/min/mg prot.
With LYEIKHQIL [PIP-4 LYEIKHQIL] the “aiPLA2 activity … (hPrdx6 only: 92.0)” value was 32.3 nmol/min/mg prot.

Target: T1, recombinant human peroxiredoxin 6 …
Assay: cell-based or functional assay
Remark: another data set of the same source
In the case of LHDFRDQIL [SN024 LHDFRDQIL], the “aiPLA2 activity of human recombinant Prdx6 with peptide (no peptide, hPrdx6 only: 99.91)” value is reported as 102 nmol/min/mg prot.
For LKIEYHQIL [SN019 LKIEYHQIL], the “aiPLA2 activity of human recombinant Prdx6 with peptide (no peptide, hPrdx6 only: 99.91)” value was 97.7 nmol/min/mg prot.
For LHEFKHQIL [SN022 LHEFKHQIL], the “aiPLA2 activity of human recombinant Prdx6 with peptide (no peptide, hPrdx6 only: 99.91)” value was 99.4 nmol/min/mg prot.
For LHDFRHQIL [PIP-2 LHDFRHQIL], the “aiPLA2 activity of human recombinant Prdx6 with peptide (no peptide, hPrdx6 only: 99.91)” value was 26.2 nmol/min/mg prot.
In the case of LYDIRHQIL [PIP-5 LYDIRHQIL], the “aiPLA2 activity of human recombinant Prdx6 with peptide (no peptide, hPrdx6 only: 99.91)” value is reported as 29.7 nmol/min/mg prot.
For LHDFRPQIL [SN025 LHDFRPQIL], the “aiPLA2 activity of human recombinant Prdx6 with peptide (no peptide, hPrdx6 only: 99.91)” value was 101 nmol/min/mg prot.
For LHDFRHNIL [SN026 LHDFRHNIL], the “aiPLA2 activity of human recombinant Prdx6 with peptide (no peptide, hPrdx6 only: 99.91)” value was 99 nmol/min/mg prot.
In the case of LFKLEHQIL [SN023 LFKLEHQIL], the “aiPLA2 activity of human recombinant Prdx6 with peptide (no peptide, hPrdx6 only: 99.91)” value is reported as 98 nmol/min/mg prot.
With LHDFRHQTL [SN029 (row of SEQ ID NO: 33) LHDFRHQTL] the “aiPLA2 activity of human recombinant Prdx6 with peptide (no peptide, hPrdx6 only: 99.91)” value was 100 nmol/min/mg prot.
With LHDFRHQLL [SN028 LHDFRHQLL] the “aiPLA2 activity of human recombinant Prdx6 with peptide (no peptide, hPrdx6 only: 99.91)” value was 102 nmol/min/mg prot.
LRFDHHQIL [SN020 LRFDHHQIL] was tested, and the “aiPLA2 activity of human recombinant Prdx6 with peptide (no peptide, hPrdx6 only: 99.91)” value was 99 nmol/min/mg prot.
For LHDFRHIIL [SN029 (row of SEQ ID NO: 31) LHDFRHIIL], the “aiPLA2 activity of human recombinant Prdx6 with peptide (no peptide, hPrdx6 only: 99.91)” value was 97.3 nmol/min/mg prot.
